We go through one substance from patent EP1745799B1.

This assay has as its target ΔEGFR (extracellular-deleted mutant human EGFR) (human) (UniProt P00533). The assay is described as follows: cell-based or functional assay.

As to “T691stop neu (ectodomain-derived, carboxyl-terminal deletion mutant of the rat p185neu oncogene) (from UniProt P06494 23-687) (receptor)”, the decrease of the phosphorylation content of immunoprecipitated p155ΔEGFR monomers (scanning densitometry, PY-20 blot of mAb Δ124 immunoprecipitates) was 33.7% and the ratio of PTyr/ΔEGFRs (scanning densitometry) was determined as 1.04.
